Data on 1 molecule can be found in article doi:10.64898/2025.12.03.691989 (bioRxiv, 2025).

Test [1] deals with T1, human UBA6 (full-length, amino acid residues 1-1052) (human, UniProt A0AVT1 1-1052).
T1 sequence (looked up): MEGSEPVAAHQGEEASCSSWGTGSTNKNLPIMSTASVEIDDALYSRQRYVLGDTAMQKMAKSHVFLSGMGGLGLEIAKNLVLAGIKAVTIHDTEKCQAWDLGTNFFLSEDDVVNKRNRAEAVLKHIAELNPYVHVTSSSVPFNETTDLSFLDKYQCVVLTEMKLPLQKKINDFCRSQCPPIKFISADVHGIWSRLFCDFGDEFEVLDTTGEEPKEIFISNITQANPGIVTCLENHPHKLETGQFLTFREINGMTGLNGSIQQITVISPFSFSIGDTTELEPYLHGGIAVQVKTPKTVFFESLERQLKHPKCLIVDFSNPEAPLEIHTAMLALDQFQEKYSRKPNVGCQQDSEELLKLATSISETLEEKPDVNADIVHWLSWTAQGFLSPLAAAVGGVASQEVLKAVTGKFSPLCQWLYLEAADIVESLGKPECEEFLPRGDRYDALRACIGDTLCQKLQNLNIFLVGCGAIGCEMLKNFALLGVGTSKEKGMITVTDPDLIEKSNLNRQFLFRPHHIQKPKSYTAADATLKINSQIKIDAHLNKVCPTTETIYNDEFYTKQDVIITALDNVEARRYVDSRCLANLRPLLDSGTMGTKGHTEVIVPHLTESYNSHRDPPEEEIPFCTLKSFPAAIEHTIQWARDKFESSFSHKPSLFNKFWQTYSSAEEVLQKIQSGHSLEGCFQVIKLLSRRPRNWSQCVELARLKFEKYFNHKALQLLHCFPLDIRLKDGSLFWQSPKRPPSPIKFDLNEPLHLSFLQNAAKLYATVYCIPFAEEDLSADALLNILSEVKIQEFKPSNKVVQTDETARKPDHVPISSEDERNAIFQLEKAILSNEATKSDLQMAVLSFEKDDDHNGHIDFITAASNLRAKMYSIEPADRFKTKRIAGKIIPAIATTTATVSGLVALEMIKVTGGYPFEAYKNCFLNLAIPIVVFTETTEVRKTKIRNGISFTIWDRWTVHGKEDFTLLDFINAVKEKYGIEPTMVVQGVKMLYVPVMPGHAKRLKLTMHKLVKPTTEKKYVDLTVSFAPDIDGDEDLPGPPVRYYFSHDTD
The test can be described thus: MST.

The next test addresses T2, human UBA1 (human, UniProt P22314 1-1058).
T2 sequence (looked up): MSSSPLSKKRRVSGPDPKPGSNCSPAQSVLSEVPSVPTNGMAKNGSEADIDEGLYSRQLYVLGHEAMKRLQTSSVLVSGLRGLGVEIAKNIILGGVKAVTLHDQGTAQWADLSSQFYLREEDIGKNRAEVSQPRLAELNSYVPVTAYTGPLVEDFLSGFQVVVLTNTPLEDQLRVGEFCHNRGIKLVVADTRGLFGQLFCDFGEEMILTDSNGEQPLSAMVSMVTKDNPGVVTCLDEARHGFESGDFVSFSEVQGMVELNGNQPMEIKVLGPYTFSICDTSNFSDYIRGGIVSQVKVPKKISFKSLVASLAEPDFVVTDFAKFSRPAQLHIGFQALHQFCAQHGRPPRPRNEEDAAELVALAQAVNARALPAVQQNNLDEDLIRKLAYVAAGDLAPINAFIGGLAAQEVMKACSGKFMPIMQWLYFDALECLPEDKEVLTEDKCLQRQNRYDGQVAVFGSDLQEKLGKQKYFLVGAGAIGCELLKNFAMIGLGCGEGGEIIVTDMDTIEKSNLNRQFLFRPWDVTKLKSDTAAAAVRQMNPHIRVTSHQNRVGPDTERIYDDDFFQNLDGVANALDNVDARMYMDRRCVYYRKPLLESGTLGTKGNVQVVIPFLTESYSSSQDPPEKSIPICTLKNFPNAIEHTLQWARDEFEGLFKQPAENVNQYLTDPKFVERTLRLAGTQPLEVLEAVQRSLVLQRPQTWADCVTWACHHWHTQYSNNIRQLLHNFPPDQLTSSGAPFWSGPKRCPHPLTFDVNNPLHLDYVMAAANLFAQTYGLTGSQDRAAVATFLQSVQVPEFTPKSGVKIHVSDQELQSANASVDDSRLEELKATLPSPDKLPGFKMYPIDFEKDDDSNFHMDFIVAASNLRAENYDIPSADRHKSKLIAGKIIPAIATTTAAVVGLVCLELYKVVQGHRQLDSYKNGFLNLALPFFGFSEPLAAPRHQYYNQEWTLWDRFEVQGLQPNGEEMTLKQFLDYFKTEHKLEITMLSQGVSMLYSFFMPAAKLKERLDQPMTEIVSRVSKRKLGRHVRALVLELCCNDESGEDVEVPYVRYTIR
The test can be described thus: MST.

B1: BIRC6 UBC domain (amino acid residues 4520-4857) (domain or fragment)
chain: not shown
Take B1: the Kd (as a rule, the equilibrium constant for the complex coming apart) amounted to 23 µM in test [1] and 13 µM with human UBA1.
